Laboratory results taken from patent publication US20120238493A1 (INDIANA UNIVERSITY RESEARCH AND TECHNOLOGY, published 2012).
Where no end group is shown, it is not given here. [ ]: non-standard residue; d: D form. 40K‑TE = not defined here; Ac3c = NC1(C(=O)O)CC1; Aib = CC(C)(N)C(=O)O

How the values were obtained:
Assay in all cases: cell-based or functional assay
GIP receptor = target: T1, GIP receptor (UniProt P48546 22-466, limits assumed)
T1 sequence (looked up): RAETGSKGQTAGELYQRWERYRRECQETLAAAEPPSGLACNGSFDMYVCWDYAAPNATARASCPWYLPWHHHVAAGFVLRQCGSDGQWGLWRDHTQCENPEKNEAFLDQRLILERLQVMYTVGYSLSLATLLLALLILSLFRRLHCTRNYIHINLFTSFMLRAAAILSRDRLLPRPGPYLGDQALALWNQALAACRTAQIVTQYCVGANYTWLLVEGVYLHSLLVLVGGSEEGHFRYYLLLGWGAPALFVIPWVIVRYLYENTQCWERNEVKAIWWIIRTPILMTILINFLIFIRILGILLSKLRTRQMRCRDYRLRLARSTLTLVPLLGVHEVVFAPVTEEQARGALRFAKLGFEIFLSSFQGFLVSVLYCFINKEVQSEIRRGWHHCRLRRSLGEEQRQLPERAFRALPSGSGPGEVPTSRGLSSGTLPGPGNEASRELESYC

glucagon receptor = glucagon receptor (UniProt P47871 26-477, limits assumed)
glucagon receptor, sequence (P47871 26-477 limits assumed): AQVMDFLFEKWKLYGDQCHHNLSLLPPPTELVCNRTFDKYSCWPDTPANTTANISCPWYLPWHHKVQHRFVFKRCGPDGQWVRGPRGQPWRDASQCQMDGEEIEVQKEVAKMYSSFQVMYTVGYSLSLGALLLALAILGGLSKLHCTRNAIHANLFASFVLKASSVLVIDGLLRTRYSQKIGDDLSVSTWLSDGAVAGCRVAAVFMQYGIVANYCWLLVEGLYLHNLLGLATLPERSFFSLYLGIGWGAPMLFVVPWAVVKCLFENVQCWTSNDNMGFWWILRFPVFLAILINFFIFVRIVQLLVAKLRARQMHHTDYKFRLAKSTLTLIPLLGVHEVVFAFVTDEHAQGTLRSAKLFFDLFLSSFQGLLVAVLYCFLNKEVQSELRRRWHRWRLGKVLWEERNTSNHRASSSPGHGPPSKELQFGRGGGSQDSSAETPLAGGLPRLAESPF

GLP-1 receptor = GLP-1 receptor (UniProt P43220 24-463, limits assumed)

| Binder | EC50 (cAMP reporter) (GIP receptor) [nM] | EC50 (cAMP reporter) (glucagon receptor) [nM] | EC50 (cAMP reporter) (GLP-1 receptor) [nM] |
| --- | --- | --- | --- |
| Y[Aib]QGTFTSDYSIYLDKQAA[Aib]EFV[Aib]WLLAGGPSSGAPPPSC-NH2 (N-terminus assumed; SMILES CC[C@H](C)[C@H](NC(=O)[C@H](CO)NC(=O)[C@H](Cc1ccc(O)cc1)NC(=O)[C@H](CC(=O)O)NC(=O)[C@H](CO)NC(=O)[C@@H](NC(=O)[C@H](Cc1ccccc1)NC(=O)[C@@H](NC(=O)CNC(=O)[C@H](CCC(N)=O)NC(=O)C(C)(C)NC(=O)[C@@H](N)Cc1ccc(O)cc1)[C@@H](C)O)[C@@H](C)O)C(=O)N[C@@H](Cc1ccc(O)cc1)C(=O)N[C@@H](CC(C)C)C(=O)N[C@@H](CC(=O)O)C(=O)N[C@@H](CCCCN)C(=O)N[C@@H](CCC(N)=O)C(=O)N[C@@H](C)C(=O)N[C@@H](C)C(=O)NC(C)(C)C(=O)N[C@@H](CCC(=O)O)C(=O)N[C@@H](Cc1ccccc1)C(=O)N[C@H](C(=O)NC(C)(C)C(=O)N[C@@H](Cc1c[nH]c2ccccc12)C(=O)N[C@@H](CC(C)C)C(=O)N[C@@H](CC(C)C)C(=O)N[C@@H](C)C(=O)NCC(=O)NCC(=O)N1CCC[C@H]1C(=O)N[C@@H](CO)C(=O)N[C@@H](CO)C(=O)NCC(=O)N[C@@H](C)C(=O)N1CCC[C@H]1C(=O)N1CCC[C@H]1C(=O)N1CCC[C@H]1C(=O)N[C@@H](CO)C(=O)N[C@@H](CS)C(N)=O)C(C)C) [peptide of SEQ ID NO: 54] | 0.467 | 0.566 | 0.091 |
| Y[dS]QGTFTSDYSIYLDKQAA[Aib]EFVNWLLAGGPSSGAPPPSC(40K‑TE)-NH2 (reading uncertain) [peptide of SEQ ID NO: 51] | 0.433 | 0.255 | 0.572 |
| Y[dS]QGTFTSDYSIYLDKQAA[Aib]EFVNWLLAGGPSSGAPPPSC-NH2 (N-terminus assumed; SMILES CC[C@H](C)[C@H](NC(=O)[C@H](CO)NC(=O)[C@H](Cc1ccc(O)cc1)NC(=O)[C@H](CC(=O)O)NC(=O)[C@H](CO)NC(=O)[C@@H](NC(=O)[C@H](Cc1ccccc1)NC(=O)[C@@H](NC(=O)CNC(=O)[C@H](CCC(N)=O)NC(=O)[C@@H](CO)NC(=O)[C@@H](N)Cc1ccc(O)cc1)[C@@H](C)O)[C@@H](C)O)C(=O)N[C@@H](Cc1ccc(O)cc1)C(=O)N[C@@H](CC(C)C)C(=O)N[C@@H](CC(=O)O)C(=O)N[C@@H](CCCCN)C(=O)N[C@@H](CCC(N)=O)C(=O)N[C@@H](C)C(=O)N[C@@H](C)C(=O)NC(C)(C)C(=O)N[C@@H](CCC(=O)O)C(=O)N[C@@H](Cc1ccccc1)C(=O)N[C@H](C(=O)N[C@@H](CC(N)=O)C(=O)N[C@@H](Cc1c[nH]c2ccccc12)C(=O)N[C@@H](CC(C)C)C(=O)N[C@@H](CC(C)C)C(=O)N[C@@H](C)C(=O)NCC(=O)NCC(=O)N1CCC[C@H]1C(=O)N[C@@H](CO)C(=O)N[C@@H](CO)C(=O)NCC(=O)N[C@@H](C)C(=O)N1CCC[C@H]1C(=O)N1CCC[C@H]1C(=O)N1CCC[C@H]1C(=O)N[C@@H](CO)C(=O)N[C@@H](CS)C(N)=O)C(C)C) [peptide of SEQ ID NO: 50] | 0.072 | 0.041 | 0.108 |
| Y[Aib]QGTFTSDYSIYLDKQAA[Aib]EFVC(40K‑TE PEG)WLLAGGPSSGAPPPSK(C14)-NH2 [peptide of SEQ ID NO: 174] | 0.019 |  | 0.01 |
| H[Aib]QGTFTSDYSIYLDKQAA[Aib]EFVNWLLAGGPSSGAPPPSC(40K‑TE)-NH2 (reading uncertain) [peptide of SEQ ID NO: 53] | 0.232 | 3.51 | 0.027 |
| H[dS]QGTFTSDYSIYLDKQAA[Aib]EFVNWLLAGGPSSGAPPPSC-NH2 (N-terminus assumed; SMILES CC[C@H](C)[C@H](NC(=O)[C@H](CO)NC(=O)[C@H](Cc1ccc(O)cc1)NC(=O)[C@H](CC(=O)O)NC(=O)[C@H](CO)NC(=O)[C@@H](NC(=O)[C@H](Cc1ccccc1)NC(=O)[C@@H](NC(=O)CNC(=O)[C@H](CCC(N)=O)NC(=O)[C@@H](CO)NC(=O)[C@@H](N)Cc1c[nH]cn1)[C@@H](C)O)[C@@H](C)O)C(=O)N[C@@H](Cc1ccc(O)cc1)C(=O)N[C@@H](CC(C)C)C(=O)N[C@@H](CC(=O)O)C(=O)N[C@@H](CCCCN)C(=O)N[C@@H](CCC(N)=O)C(=O)N[C@@H](C)C(=O)N[C@@H](C)C(=O)NC(C)(C)C(=O)N[C@@H](CCC(=O)O)C(=O)N[C@@H](Cc1ccccc1)C(=O)N[C@H](C(=O)N[C@@H](CC(N)=O)C(=O)N[C@@H](Cc1c[nH]c2ccccc12)C(=O)N[C@@H](CC(C)C)C(=O)N[C@@H](CC(C)C)C(=O)N[C@@H](C)C(=O)NCC(=O)NCC(=O)N1CCC[C@H]1C(=O)N[C@@H](CO)C(=O)N[C@@H](CO)C(=O)NCC(=O)N[C@@H](C)C(=O)N1CCC[C@H]1C(=O)N1CCC[C@H]1C(=O)N1CCC[C@H]1C(=O)N[C@@H](CO)C(=O)N[C@@H](CS)C(N)=O)C(C)C) [peptide of SEQ ID NO: 48] | 0.433 | 0.026 | 0.01 |
| H[Aib]QGTFTSDYSIYLDKQAA[Aib]EFVNWLLAGGPSSGAPPPSC-NH2 (N-terminus assumed; SMILES CC[C@H](C)[C@H](NC(=O)[C@H](CO)NC(=O)[C@H](Cc1ccc(O)cc1)NC(=O)[C@H](CC(=O)O)NC(=O)[C@H](CO)NC(=O)[C@@H](NC(=O)[C@H](Cc1ccccc1)NC(=O)[C@@H](NC(=O)CNC(=O)[C@H](CCC(N)=O)NC(=O)C(C)(C)NC(=O)[C@@H](N)Cc1c[nH]cn1)[C@@H](C)O)[C@@H](C)O)C(=O)N[C@@H](Cc1ccc(O)cc1)C(=O)N[C@@H](CC(C)C)C(=O)N[C@@H](CC(=O)O)C(=O)N[C@@H](CCCCN)C(=O)N[C@@H](CCC(N)=O)C(=O)N[C@@H](C)C(=O)N[C@@H](C)C(=O)NC(C)(C)C(=O)N[C@@H](CCC(=O)O)C(=O)N[C@@H](Cc1ccccc1)C(=O)N[C@H](C(=O)N[C@@H](CC(N)=O)C(=O)N[C@@H](Cc1c[nH]c2ccccc12)C(=O)N[C@@H](CC(C)C)C(=O)N[C@@H](CC(C)C)C(=O)N[C@@H](C)C(=O)NCC(=O)NCC(=O)N1CCC[C@H]1C(=O)N[C@@H](CO)C(=O)N[C@@H](CO)C(=O)NCC(=O)N[C@@H](C)C(=O)N1CCC[C@H]1C(=O)N1CCC[C@H]1C(=O)N1CCC[C@H]1C(=O)N[C@@H](CO)C(=O)N[C@@H](CS)C(N)=O)C(C)C) [peptide of SEQ ID NO: 52] | 0.006 | 0.2 | 0.005 |
| Y[Aib]QGTFTSDYSIYLDKQAA[Ac3c]EFVNWLLAGGPSSGAPPPSC-NH2 [peptide of SEQ ID NO: 60] |  | 0.047 | 0.0028 |
| Y[Aib]QGTFTSDYSIYLDEQAAKEFV[Aib]WLLAGGPSSGAPPPSC-NH2 (lactam (positions not given here); also: lactam between underlined residues, underlining not shown) [peptide of SEQ ID NO: 56] | 1.98 | 1.27 | 0.096 |
